This is an account of results in PMC6686035.

In data set [1] the target is CsrA-His6 (Escherichia coli) (UniProt P69913). Kind of data set: EMSA. The following applies: EMSA: 0.5 nM RNA, 10 mM MgCl2, 100 mM KCl, 32.5 ng yeast RNA, 20 mM DTT, 7.5% glycerol, 4 U SUPERasin, 37 C 30 min (pH not stated), footprint: 2 nM RNA. (Mobility shift assays separate free from complexed probe on a gel.)
For data set [2] the target is unchanged. Kind of data set: RNase T1 footprinting. The following applies: EMSA: 0.5 nM RNA, 10 mM MgCl2, 100 mM KCl, 32.5 ng yeast RNA, 20 mM DTT, 7.5% glycerol, 4 U SUPERasin, 37 C 30 min (pH not stated), footprint: 2 nM RNA.

Sequence of CsrA-His6 (Escherichia coli) (P69913 whole entry): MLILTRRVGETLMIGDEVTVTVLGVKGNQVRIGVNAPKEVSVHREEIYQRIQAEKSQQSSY

For the substance “GAAGAUCAUCGUCAGAAUUGACUCCACGAUCACAUUUCGGACCGGCAGAAAGGAAUUAUUCUGCAAACAGUAAUUAUGGUGUUUUGAUUUAUCUUGCACCUCUCCACUUCUGGAUAUAAGGAUAUUAGGU [ftnB EMSA transcript]”, in data set [1], the Kd turned out to be 13 nM.
Regarding “GGGAUCAUCGUCAGAAUUGACUCCACGAUCACAUUUCGGACCGGCAGAAAGGAAUUAUUCUGCAAACAGUAAUUAUGGUGUUUUGAUUUAUCUUGCACCUCUCCACUUCUGGAUAUAAGGAUAUUAGGUAUGGCAACCGCUGGAAUGCUUCUCAAGGAUCC [ftnB footprint RNA (+1 to +152)]”, the binding result in data set [2] is given as “binds”.
“GGGUGGAAGCGAAGGAGUCAAAAAAUGAAAGGUGAUACUAAAGUUAUAAAUUAUCUCAACAAACUGUUGGGAAAUGAGCUUGU [bfr EMSA transcript]” registered a Kd in data set [1] of 27 nM.
As for bfr EMSA transcript, in data set [1] (10 mM Mg2+, apparent KD, cooperative equation, single shift), the Kd came out at 27 nM.
With ftnB EMSA transcript, the Kd in data set [1] was 13 nM.
